T1: rodent Aβ3pE-40 (rodent, pyroglutamate (pE) at the N-terminus, residue 3 of Aβ)
T1 peptide: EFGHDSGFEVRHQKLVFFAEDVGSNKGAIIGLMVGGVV

T2: human AβpE11-40 (human, pyroglutamate (pE) at the N-terminus, residue 11 of Aβ)
T2 construct: also called Aβ11pE-40
T2 peptide: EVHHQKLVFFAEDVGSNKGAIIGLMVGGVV

T3: AβpE11-42 (human, pyroglutamate (pE) at the N-terminus, residue 11 of Aβ)
T3 construct: also called Aβ11pE-42
T3 peptide: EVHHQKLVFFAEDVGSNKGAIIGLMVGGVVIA


Columns and labels:
human Aβ1-40 peptide [1] = biological target: human Aβ1-40 peptide (human); assay: sandwich ELISA, BAMB31_1 coated, JRF/cAβ40/28-HRPO detection
rodent Aβ3pE-40 = biological target: T1, rodent Aβ3pE-40; assay: as above
human AβpE11-40 = biological target: T2, human AβpE11-40; assay: as above
human Aβ1-42 = human Aβ1-42 (human); assay: sandwich ELISA, BAMB31_1 coated, JRF/cAβ42/26-HRPO detection
AβpE11-42 = biological target: T3, AβpE11-42; assay: as above
Aβ3pE-42 = Aβ3pE-42 (pyroglutamate (pE) at the N-terminus, residue 3 of Aβ); assay: sandwich ELISA, BAMB31_1 coated, HRPO-labeled C-terminal antibody for detection
human Aβ1-40 peptide [2] = biological target: human Aβ1-40 peptide (human); assay: SPR (Biacore T200), antibody captured, peptide injected
Target sequence in this assay (peptide, as listed by the source): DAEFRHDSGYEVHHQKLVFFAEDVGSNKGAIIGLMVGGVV

human Aβ 3pE-28 peptide = human Aβ 3pE-28 peptide (human, pyroglutamate (pE) at the N-terminus, residue 3 of Aβ); assay: SPR, antibody captured on anti-human or anti-mouse Ig chip, peptide injected, 1:1 fit; N=1
human Aβ 3pE-28 peptide (human, pyroglutamate (pE) at the N-terminus, residue 3 of Aβ), sequence (peptide, as listed by the source): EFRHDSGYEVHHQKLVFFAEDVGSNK

human Aβ 3pE-40 peptide = human Aβ 3pE-40 peptide (human, pyroglutamate (pE) at the N-terminus, residue 3 of Aβ); assay: SPR (Biacore T200), antibody captured by anti-mouse antibody on CM5, peptide injected, 1:1 fit; mean
human Aβ 3pE-40 peptide (human, pyroglutamate (pE) at the N-terminus, residue 3 of Aβ), sequence (peptide, as listed by the source): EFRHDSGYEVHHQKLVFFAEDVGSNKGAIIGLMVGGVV

| binding result (human Aβ1-40 peptide [1]) | binding result (rodent Aβ3pE-40) | binding result (human AβpE11-40) | binding result (human Aβ1-42) | binding result (AβpE11-42) | binding result (Aβ3pE-42) | binding result (human Aβ1-40 peptide [2]) | Kd (human Aβ 3pE-28 peptide) [nM] | koff (human Aβ 3pE-28 peptide) [s⁻¹] | kon (human Aβ 3pE-28 peptide) [M⁻¹ s⁻¹] | Kd (human Aβ 3pE-40 peptide) [nM] | koff (human Aβ 3pE-40 peptide) [s⁻¹] | kon (human Aβ 3pE-40 peptide) [M⁻¹ s⁻¹] | Binder |
| --- | --- | --- | --- | --- | --- | --- | --- | --- | --- | --- | --- | --- | --- |
| no binding (tested: 10 ng/mL) | no binding (tested: 10 ng/mL) | no binding (tested: 10 ng/mL) | no binding (tested: 10 ng/mL) | no binding (tested: 10 ng/mL) | binds | – | – | – | – | – | – | – | BAMB31_1 (antibody, mouse IgG1, V domains shown, Hybridoma antibody) VH: EIQLQQSGPELVKPGTSVKVSCKASGHVFTSYDMYWVKQSHGKSLEWIGYIDSDNGDTSYNQKFKGKATLTVDKSSSTAYMHLNSLTSEDSAVYYCAYYRYAMDYWGQGTSVTVSS VL: not shown |
| – | – | – | – | – | – | no binding (tested: 50 nM) | 0.0275 | 7.97e-05 | 2.89e+06 | 0.053 | 4.94e-05 | 930000 | BAMB31_2a (mIgG2a) (antibody, BAMB31 V regions on murine IgG2a; also called BAMB31 (mIgG2a); mIgG2a parent) heavy: EIQLQQSGPELVKPGTSVKVSCKASGHVFTSYDMYWVKQSHGKSLEWIGYIDSDNGDTSYNQKFKGKATLTVDKSSSTAYMHLNSLTSEDSAVYYCAYYRYAMDYWGQGTSVTVSSAKTTAPSVYPLAPVCGDTTGSSVTLGCLVKGYFPEPVTLTWNSGSLSSGVHTFPAVLQSDLYTLSSSVTVTSSTWPSQSITCNVAHPASSTKVDKKIEPRGPTIKPCPPCKCPAPNLLGGPSVFIFPPKIKDVLMISLSPIVTCVVVDVSEDDPDVQISWFVNNVEVHTAQTQTHREDYNSTLRVVSALPIQHQDWMSGKEFKCKVNNKDLPAPIERTISKPKGSVRAPQVYVLPPPEEEMTKKQVTLTCMVTDFMPEDIYVEWTNNGKTELNYKNTEPVLDSDGSYFMYSKLRVEKKNWVERNSYSCSVVHEGLHNHHTTKSFSRTPGK light: not shown |

Source: US20220177560A1 (Janssen / Centocor, published 2022)
